Reference: paper PMC3646895, “The Carboxy-Terminal αN Helix of the Archaeal XerA Tyrosine Recombinase Is a Molecular Switch to Control Site-Specific Recombination” (PLoS ONE, 2013)
Where “and” joins values, the source holds several entries; their conditions need not be identical. Equal entries are not always repeated.

What was measured:
[1] = biological target: XerA recombinase from Pyrococcus abyssi, C-terminal His-tagged (Pyrococcus abyssi) (UniProt Q9V1P5); assay: AUC; sedimentation velocity, 25°C, 0.3 mM (11.8 mg.ml^-1) XerA in 20 mM Tris-HCl pH 7.5, 1 M NaCl, 42,000 rpm; c(s) distribution and self-association model with fitted non-ideality; dimer to monomers
[2] = biological target: the molecule itself; assay: SDS-PAGE of covalent protein-DNA complexes (assemblies resistant to thermal denaturation); 40 pmol XerA protein with 25 nM 5' end-labeled left half recombination site, 30 mM Tris pH 7.5, 50 mM NaCl, 2 h at 65°C, quenched in Laemmli buffer, 10 min at 100°C, 12% SDS-PAGE, phosphorimaging

| Kd [1] [µM] | stoichiometry N [1] | Molecule | fold reduction of the high molecular weight complexes against XerA [2] [fold] |
| --- | --- | --- | --- |
| > 100 | 2 and 4 | XerA recombinase from Pyrococcus abyssi, C-terminal His-tagged (from UniProt Q9V1P5 1-286) (enzyme) | – |
| – | – | XerA-ΔC, XerA deleted for the last 13 amino-acids (αN helix), N-terminal His-tagged (domain or fragment, Pyrococcus abyssi, UniProt Q9V1P5 1-273, looked up, XerA tyrosine recombinase, Pyrococcus abyssi, deleted for the last 13 amino-acids corresponding to the αN helix alone; In the assay it is covalently linked to the cleaved DNA half site; also called ΔαN helix mutant; source: recombinant, obtained by PCR, expressed and purified following the procedure described for the wild-type enzyme) MEEREERVRDDTIEEFATYLELEGKSRNTVRMYTYYISKFFEEGHSPTARDALRFLAKLKRKGYSTRSLNLVIQALKAYFKFEGLDSEAEKLKTPKMPKTLPKSLTEEEVRRIINAAETLRDRLILLLLYGAGLRVSELCNLRVEDVNFEYGVIVVRGGKGGKDRVVPISESLLSEIKRYLESRNDDSPYLFVEMKRKRKDKLSPKTVWRLVKKYGRKAGVELTPHQLRHSFATHMLERGIDIRIIQELLGHSNLSTTQIYTKVSTKHLKEAV | 4 |
